We go through two molecules from US20110165265A1, “TRAIL VARIANTS FOR TREATING CANCER” (FUNDACIÓ GENÒMICA (CRG), priority 2007, published 2011).

Data set [1] has as its system Colo205 tumors. Briefly: Colo205 tumors in athymic nude mice. The conditions noted are these: 1 and 5 mg/kg IP. The class given is in vivo.
For data set [2] the following is noted: acknowledged value; cited from earlier work.
Data set [3] concerns the target T1, DR5 (Homo sapiens, UniProt O14763).
T1 construct: Effect of soluble recombinant DR5-Ig (sDR5) on apoptosis induction
In words: SPR binding to immobilized DR5-Ig. For orientation: Surface plasmon resonance follows binding to a sensor surface in real time, without labels.

Data set [4] has as its system A2780 cells. In words: MTT cytotoxicity in A2780 (Example 6). The class given is cell-based. The following applies: A2780 (FIG. 8E).
In data set [5] the test system is BJAB cells. In words: Cytotoxicity in BJAB cells. The class given is cell-based.

“Also recorded” adds a separate entry of the source.

B1: wtTRAIL: wild-type soluble recombinant human TRAIL, amino acids 114-281 (SEQ ID NO: 3) (protein, listed as Homo sapiens)
chain: MVRRGRVAAHTGTRGRSNTSSNSKNKAGRKNSWSSRSGHSSNHRNGVHKGYYYSTYRKNTKNDKMVYYKYTSYDMKSARNSCWSKDAYGYSYGGKNDRVSVTNHDMDHASGAVG
modifications: TRAIL 114-281
With B1, in data set [1], the “anti-tumor effect, single therapy” value is “neither of the two concentrations of wtTRAIL give an anti-humor effect; also recorded: do not give an anti-tumor effect”. The half life result in data set [2] is “approximately 30 minutes”.

B2: D269HE195R: rhTRAIL (114-281) carrying mutations D269H and E195R; DR5-selective TRAIL variant (protein)
chain: MVRERGPQRVAAHITGTRGRSNTLSSPNSKNEKALGRKINSWESSRSGHSFLSNLHLRNGELVIHEKGFYYIYSQTYFRFQERIKENTKNDKQMVQYIYKYTSYPDPILLMKSARNSCWSKDAEYGLYSIYQGGIFELKENDRIFVSVTNEHLIDMHHEASFFGAFLVG
For the molecule B2, the “increase in association rate constant (kon) for binding to DR5 compared to wtTRAIL” value in data set [3] was “less than 5 fold”. The “affinity for DR5-Ig compared to wtTRAIL” value in data set [3] (pre-steady state SPR) is reported as “increased several fold”. Further, the “cytotoxic activity compared with wild-type TRAIL” value in data set [4] is recorded as “significantly increased”. The figures for the cell death induction result in data set [5] (BJABDR5 DEF cells) and in data set [5] (BJABwt cells) were “unable to induce significant cell death” and “able to induce cell death”, respectively. Also, in data set [5] (BJABDR5 DEF+DR5 cells), the cytotoxic potential result was “restored”.
